Patent publication US20130115678

How the values were obtained:
Assay in all cases: cleavage_in_vitro
[1] = target: T1, BamHI (Bacillus amyloliquefaciens) (UniProt P23940); details: NEB4, 37 C, Mg2+; FI NEB1-3: 4, 4, 32
T1 sequence: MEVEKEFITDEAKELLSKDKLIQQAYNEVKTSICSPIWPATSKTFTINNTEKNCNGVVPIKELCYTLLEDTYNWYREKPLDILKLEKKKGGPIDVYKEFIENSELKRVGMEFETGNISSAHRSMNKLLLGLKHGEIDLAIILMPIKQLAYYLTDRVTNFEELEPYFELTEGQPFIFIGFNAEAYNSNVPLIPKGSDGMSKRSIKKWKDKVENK

[2] = target: T2, ScaI-HF H193A/S201F (Streptomyces caespitosus) (UniProt O52691); details: NEB4, 37 C, Mg2+; FI NEB1-3: 4000, 1000, 2000
T2 sequence: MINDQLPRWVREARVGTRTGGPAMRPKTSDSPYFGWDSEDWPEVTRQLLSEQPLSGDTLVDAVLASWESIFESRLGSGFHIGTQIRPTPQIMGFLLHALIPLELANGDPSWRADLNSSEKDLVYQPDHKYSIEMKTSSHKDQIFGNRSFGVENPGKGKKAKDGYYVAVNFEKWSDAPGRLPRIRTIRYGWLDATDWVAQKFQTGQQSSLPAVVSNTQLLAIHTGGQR

[3] = target: EcoRI (Escherichia coli RY13) (UniProt P00642); details: NEB4, 37 C, Mg2+; FI NEB1-3: 250, 4, 250
[4] = test system: BstXI-HF N65A (Bacillus stearothermophilus); details: NEB4, 55 C, Mg2+; FI NEB1-3: >=120, >=250, >=16
[5] = test system: T3, NcoI (Nocardia corallina); details: NEB4, 37 C, Mg2+; FI NEB1-3: 120, 32, 120
T3 sequence: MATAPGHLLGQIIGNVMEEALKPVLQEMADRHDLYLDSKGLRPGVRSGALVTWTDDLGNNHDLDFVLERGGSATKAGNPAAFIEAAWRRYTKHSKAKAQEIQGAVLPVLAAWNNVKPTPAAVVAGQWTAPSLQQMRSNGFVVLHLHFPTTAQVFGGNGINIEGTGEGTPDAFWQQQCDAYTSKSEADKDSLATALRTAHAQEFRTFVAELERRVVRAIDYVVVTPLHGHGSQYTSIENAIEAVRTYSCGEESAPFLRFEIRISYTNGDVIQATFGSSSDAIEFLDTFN

[6] = test system: T4, SspI-HF Y98F (Sphaerotilus species); details: NEB4, 37 C, Mg2+; FI NEB1-3: >=4000, 120, >=32
T4 sequence: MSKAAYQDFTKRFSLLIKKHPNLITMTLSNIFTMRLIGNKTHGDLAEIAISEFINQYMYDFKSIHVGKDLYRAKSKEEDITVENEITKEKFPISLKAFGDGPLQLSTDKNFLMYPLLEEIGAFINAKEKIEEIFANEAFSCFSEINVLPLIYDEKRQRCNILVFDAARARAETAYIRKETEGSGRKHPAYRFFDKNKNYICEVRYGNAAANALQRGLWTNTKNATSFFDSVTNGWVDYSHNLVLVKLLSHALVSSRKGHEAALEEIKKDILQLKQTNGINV

[7] = target: T5, PstI-HF D91A (Providencia stuartii 164) (UniProt P00640); details: NEB4, 37 C, Mg2+; FI NEB1-3: 1000, 4000, 4000
T5 sequence: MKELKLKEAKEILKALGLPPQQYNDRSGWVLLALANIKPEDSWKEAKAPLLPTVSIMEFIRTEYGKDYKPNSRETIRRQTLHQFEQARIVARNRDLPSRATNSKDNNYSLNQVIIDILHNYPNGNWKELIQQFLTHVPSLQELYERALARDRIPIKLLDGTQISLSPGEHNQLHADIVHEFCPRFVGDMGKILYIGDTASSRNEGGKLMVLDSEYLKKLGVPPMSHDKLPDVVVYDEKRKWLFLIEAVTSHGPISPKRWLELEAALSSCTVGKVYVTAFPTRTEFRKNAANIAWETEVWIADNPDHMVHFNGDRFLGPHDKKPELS

[8] = test system: BstXI (Bacillus stearothermophilus); details: NEB4, 55 C, Mg2+; FI NEB1-3: 2, 2, 2
[9] = test system: T6, BsmBI (Bacillus stearothermophilus); details: NEB4, 55 C, Mg2+; FI NEB1-3: 1, 8, 120
T6 sequence: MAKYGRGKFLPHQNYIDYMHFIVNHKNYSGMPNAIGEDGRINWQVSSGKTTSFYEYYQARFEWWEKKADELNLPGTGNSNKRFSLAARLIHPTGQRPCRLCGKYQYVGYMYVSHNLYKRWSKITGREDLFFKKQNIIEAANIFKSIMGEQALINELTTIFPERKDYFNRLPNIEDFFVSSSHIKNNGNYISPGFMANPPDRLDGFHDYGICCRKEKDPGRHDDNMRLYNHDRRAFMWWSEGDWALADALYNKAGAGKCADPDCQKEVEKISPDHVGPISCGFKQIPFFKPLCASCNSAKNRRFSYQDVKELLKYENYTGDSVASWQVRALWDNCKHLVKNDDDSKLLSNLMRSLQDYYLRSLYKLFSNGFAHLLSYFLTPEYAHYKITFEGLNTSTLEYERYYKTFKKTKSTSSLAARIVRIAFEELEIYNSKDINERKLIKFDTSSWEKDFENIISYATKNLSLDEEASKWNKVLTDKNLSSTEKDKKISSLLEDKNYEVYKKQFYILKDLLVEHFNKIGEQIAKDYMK

[10] = test system: T7, SphI (Streptomyces phaeochromogenes); details: NEB4, 37 C, Mg2+; FI NEB1-3: 64, 32, 64
T7 sequence: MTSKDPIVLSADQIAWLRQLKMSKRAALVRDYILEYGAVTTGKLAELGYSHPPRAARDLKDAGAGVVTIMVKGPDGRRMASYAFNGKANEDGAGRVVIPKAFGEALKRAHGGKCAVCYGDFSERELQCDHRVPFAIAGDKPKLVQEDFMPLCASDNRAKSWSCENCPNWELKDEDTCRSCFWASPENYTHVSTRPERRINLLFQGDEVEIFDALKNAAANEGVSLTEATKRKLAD

lambda phage DNA was tested, and the activity (fidelity index) [1] was 4, the activity (fidelity index) [2] was 1000 and the activity (fidelity index) [3] was 4. The activity (fidelity index) [4] was > 250, the activity (fidelity index) [5] was 32 and the activity (fidelity index) [6] was 500. For the same substance, the activity (fidelity index) [7] was 4000, the activity (fidelity index) [8] was 4 and the activity (fidelity index) [9] was 4. The activity (fidelity index) [10] was 16.
